± gives the uncertainty stated by the source.
Experiment: amyloid nucleation score (Sup35N fusion, yeast selection) (log enrichment); library NNK2; higher = more nucleation; inactive = no reads after selection
How it was run: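 Output and input plasmid inserts were sequenced by Illumina after psi-negative yeast carrying Sup35N fused to peptides of 20 random codons had been induced 24 hours with 100 μM copper sulfate and grown 7 days at 30°C on medium lacking adenine and uracil. The nucleation score is the DiMSum log enrichment of output over input reads, centred on the mode score of non-aggregating sequences. Sequences with under 100 input reads were excluded.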

Substance | amyloid nucleation score
VGYIQGFERTYL | -0.42 ± 0.76
ELLGVQFRSRKYAATQNQWP | 2.03 ± 0.19
PLLFTWAVLINALWVKSTPG | -0.19 ± 1
YFISDEIVQSNIFSLIGWFC | 8.556 ± 0.042
GGFSLMIFVCAGSHLG | 5.26 ± 0.07
PCRVYHLCNYKLAWRKGGWL | 0.927 ± 0.2
IVCSC | -0.194 ± 0.45
TTPLTRRFRRFHVW | 1.02 ± 0.26
YSWWW | 1.15 ± 0.66
LFEAWSIYIYFASLKGTAGG | -1.26 ± 1.1
VSACQSESVSNVFDR | -0.152 ± 0.56
SEERPKETRGGFWARVSSGG | 0.228 ± 0.74
RAVLFAVVKQM | 0.874 ± 0.42
HKWEAKMGPISVLFRCFGLD | 1.09 ± 0.14
DIMVERGAFIGLKAD | 5.41 ± 0.068
FHTLRVE | 1.46 ± 0.3
FYDVSCTRTDIMVESTSRLS | 5.24 ± 0.086
NCHMR | -0.19 ± 0.34
MFNLSLNEFKPGLNRDCVQ | -0.258 ± 0.56
IGFYFLNRRKIFLASTGILM | inactive
SCSANCRISLDSSRVVVPYY | 0.571 ± 0.64
LLPYSSHN | 4.901 ± 0.039
KDCISLDSIV | inactive
GSAMF | inactive
ICLHHDYGSGWWIIQSAWQI | 2.95 ± 0.076

Substance | amyloid nucleation score
WSQRMLRSQEVPCSWWEIVT | 0.905 ± 0.13
CLLNVTEAFTGGSMIGWHFR | 5.393 ± 0.049
STSQWYRVLVRVVCSPM | 0.331 ± 0.4
LFMNRHVYVLQVVEMYKRQT | -1.07 ± 1.1
TPYGFSFRTRYMKQADLALS | -0.315 ± 0.33
GLGAKYWIYVVGFHCVHN | 0.289 ± 0.39
DVRPDLNDKSRTVDSDVLLC | -0.846 ± 0.78
RLIKTHVVKLFQSRWWVIGD | 0.631 ± 0.51
SKPWKYNRFYLESSEWSSFC | 1.47 ± 0.3
PSCFQDYKWQMWQLTRAWNF | -0.758 ± 0.55
YFILVLVESLHPSGVPAFWC | -0.103 ± 0.65
DIVIDRNMSLWDPFNIVPFE | -0.27 ± 0.79
CHYRMVVKRYTFEHYAFYVG | -0.782 ± 0.61
LNLFFLCGYPYYRNVGCMGH | 7.195 ± 0.067
KWITVYETVNCMSGWFIQDL | 6.622 ± 0.033
KPGMRNNYFLAFGFYCTCTR | 1.59 ± 0.21
DCLIRIVQSTGVYVRWQGRA | 4.35 ± 0.086
YTEQVYVYLGFLSHGASRYL | -0.716 ± 1.1
SALERVKSWSQGNNSIGDHI | -0.418 ± 1.1
LSHRSQYGADVIRSR | -0.316 ± 0.61
QCYIVCFICSRYTNQVKLLY | 1.38 ± 0.14
CFFSNQMADGYPQRWAVLRD | 4.94 ± 0.054
ICLDLCNMKLEKGLS | -1.55 ± 1
PPVMFLRWCVQAGSPWTNHC | -0.105 ± 1.1
RVDARERNELDGIYFIVGSS | -0.271 ± 1

Substance | amyloid nucleation score
MALHVQWRVTGSI | 5.14 ± 0.037
HYGVNESLIKRYNWLRGVIW | 0.227 ± 1.1
MVLVS | 0.548 ± 0.34
FTNLVTLYVYCYSFWYGILN | -0.232 ± 1.1
CLNRLFHTPGDGDNYCRAIL | 0.34 ± 0.5
DWWLLYNCRSRMMGIKADPL | inactive
AFYGL | inactive
VRIKCYVKPYFFQKFLHMIG | -1.34 ± 0.53
LRWQKNLNSL | -0.778 ± 0.64
GDFDKDV | -0.188 ± 0.5
FILRHQFCLRTLIYGPSIFF | 7.465 ± 0.045
AYRVWRRGVEMMRNPFLPVA | 3.6 ± 0.064
GYIYVNSGYRFTKLCMVFC | 0.058 ± 0.79
NEWAN | -1.31 ± 0.62
RFGSADVSITRVDFSS | 0.961 ± 0.15
WSRSLKDGALESYSSVRLLC | 0.1 ± 0.28
TFVGVLNQTNH | 2.73 ± 0.13
VIQNYL | -0.624 ± 0.39
ALFFRTKTKHWVSCRFLMS | 2.86 ± 0.078
IVCDWRTP | 0.614 ± 0.41
PLHHSLRTYVALGLR | 0.306 ± 0.65
LYDVRGEMSNVGWFM | -0.052 ± 0.54
ALGVPLYMIEGIGKCLLSLK | 1.24 ± 0.43
WMLRGRYFGTE | -1.47 ± 0.44
SSWAGVMYIVHNTKVHSYTI | 3.19 ± 0.064

Substance | amyloid nucleation score
HICPFGCGYYLGEDKDAWSG | -0.749 ± 0.56
RLSCKED | 0.108 ± 0.61
TNATSGGHMLMIYEDFNVYL | 2.49 ± 0.069
RTPCVHMPHAVSLGLVALLL | -0.318 ± 0.76
QFFTLFDVSRRLHFNTWLRL | -1.14 ± 0.64
STQRIEDIEIVEQKCPACIG | 0.754 ± 0.3
NWASKTFYGSYGSRYCQFGE | 1.07 ± 0.59
ISRLWCHRHLCCPGWSMVRQ | -0.063 ± 0.74
EFCIPKNLRSW | 0.182 ± 0.22
FINRPVKRKLNSSNIYICV | 3.16 ± 0.14
LTYYLRSFVIPSWG | inactive
MSKYFWVSRGSSIITTW | -0.539 ± 0.37
TSCFLLILCLQMKCTSFTSS | 2.18 ± 0.11
LSFVVL | -0.67 ± 1.1
CVFRHTVIYGLGAGW | 2.65 ± 0.14
NVLRMMC | -0.286 ± 0.27
GYDGRFIASRSVYFKARIGG | -0.056 ± 0.29
CVLSLNTGTASWITHVWKLY | 0.349 ± 0.5
KSVKIVSSAMKGWIHSTYSR | -0.316 ± 0.28
TESVPSWNGMKNMYEDNQLK | 1.54 ± 0.55
GGLFRFYS | inactive
WIVSF | 0.131 ± 0.29
HLFCTMHSQTLEDYIKSLVC | -0.087 ± 1
LLLRGQLQVMPGDPARRMYV | 0.556 ± 0.29
WCNTRRCNSPPLVVC | 1.86 ± 0.12

Substance | amyloid nucleation score
RFMFGNVKMLCVWAKRMLDI | 3.16 ± 0.12
MWTLLVKSTKGAHGQYSVMH | 0.397 ± 0.22
GLYEYPHGKTIMVDWMAGRL | 1.17 ± 0.28
FCRGIHVTSIITTIDWYYSL | 0.36 ± 0.62
LVESVTEEQE | 0.837 ± 0.47
KGSIRCPRVFHQFRFLMG | -0.302 ± 0.74
RSVWNASAFVAIFFRVRSQA | 0.547 ± 0.36
STSSSLAR | 0.867 ± 0.22
WCGFHGKATNHFMWIV | 1.45 ± 0.27
RCSTFFEYSQTIPHYLVTLF | -0.91 ± 0.44
SGWTFGVQCLYTLVSMFLLC | 1.5 ± 0.12
LILMAENL | -0.92 ± 1.1
VSYGVWSCIRGL | -0.324 ± 1.1
FRDANKGCIEKFVVTCDFRM | 0.003 ± 0.38
CDMPLKLWTLAVLPLDVPYR | 0.179 ± 0.49
RTLGHSLYPIDIYMGSDHLG | inactive
LKMIWIYSFCLILVLYLRQA | 0.148 ± 1
SVIRSCVNIDSLVKVEWGAS | 6.717 ± 0.052
WLYRQFDLSLESYNWMPGIE | 3.95 ± 0.12
RSNSMMLCFASDIVRFYHMG | 2.71 ± 0.14
IFMAKFSEIPTGPVIIMFYL | inactive
HLFNGSGGLFSLTRSFMKS | -0.228 ± 1.1
SYVVVAPLCQCTTVSGRRGI | 1.04 ± 0.59
SMYLTETRLHCHDWSAAAWG | 0.663 ± 0.21
LVSRCDDACGIQTGNMV | 0.043 ± 0.33

Substance | amyloid nucleation score
STTLSEIMIYAVTGG | -0.45 ± 0.31
FESRFYHSVLTIVTLFTYPA | -0.025 ± 1.1
RYTWWWHSLFMSDSVAMNSA | -0.334 ± 0.42
LSLYWVMSLKSQAP | 0.354 ± 0.64
IKYYVTVWSLESDTAWVGGL | 0.196 ± 0.45
CILGENYRIQSTDAHKGVSR | -0.205 ± 0.19
RSFRECQDCGMQMFISRRLV | 0.15 ± 0.18
SRLCFWSVGFNKTQQVEPVR | -1.33 ± 1.1
WRYYAGWYESWSTAGQTCTF | -0.487 ± 1.1
TRQKACMISKASPLGSSEYA | inactive
FLSVTFFRLIRCMAL | inactive
YTLFYARNLSSMDVICN | -1.09 ± 0.76
MFCSEMLVYGLMMVLSF | -0.05 ± 0.3
RTSKPLRRMNQRGLDFACAL | 1.04 ± 0.41
YYIAI | -0.619 ± 1
DGVSHC | 0.02 ± 0.79
RMLSLGNYGSNAYICCIVCY | 1.92 ± 0.36
DSYGSFVKLMTVSVYMKGVF | inactive
GIHRSMTFLTNQNRLIWSHG | 1.17 ± 0.4
NSRLLVDGHFIRTFRAFWVN | -1.12 ± 0.56
LGQSCTYQCQQLCSLSHNRV | -0.214 ± 1.1
FDCGGCKNMGF | -1.74 ± 0.62
RTSSTR | 0.468 ± 0.28
NDKVFYGRFSFHHVGHWCRV | -0.506 ± 0.41
SCKWVRGVSRMPNHWN | -0.618 ± 1.1

Substance | amyloid nucleation score
MNELVIIGILMCCTDF | 8.484 ± 0.027
LRSGLSLGSNLPKGGNIRSL | -0.531 ± 1.1
VFTTQEGTTTIPRNSMIEYA | -0.193 ± 0.37
TRCFQILPCYRI | -0.624 ± 0.76
CSSENLSLLIYSIKVGNGF | 3.28 ± 0.12
SCDRIRMCCSWCQV | 3.54 ± 0.049
MMLNSINLKYLIWLCN | 2.73 ± 0.06
STVKVLVPEVHWSKATPRNY | 2.99 ± 0.14
IRQAWLYS | 0.615 ± 0.13
CMFEFHGVAVGLMRVFHRLW | 5.23 ± 0.062
IFCLPIKKRVMYNHGLTIFG | 0.461 ± 0.29
KMSMSFSWWE | 3.51 ± 0.068
SMRFVLAF | -1.92 ± 0.77
SGEVSAVRV | 0.852 ± 0.19
ADNVGS | 3.71 ± 0.058
HFSDVSSEVGVIHCSMLGSN | -0.107 ± 0.49
VDTSYITCITRLSPYIKVVL | -0.477 ± 0.79
LLMQVIRPVNLLFRWRELWA | 0.213 ± 0.34
FSMFMDIRRFMGSRWCV | 0.089 ± 1.1
SLSWQNPCLMFMDNMADMIS | -0.006 ± 0.54
NISFADSCMNFIRYY | 2.4 ± 0.12
TLTKKLHIGMLYPYHTLMLR | -0.596 ± 0.76
